Data as given in patent US20070134249A1 (GENITOPE, published 2007).
One block for each binder: values may come before it.

Columns and labels:
[1] = target: T1, 551; test: ELISA
T1 construct: H3-23 L1-40; also called PIN551
Source text: (§1) Before specificity screening, all of the clonal immunogen-positive hybridoma supernatants were re-screened on the immunogen, a non-family member Id protein, and KLH, if animals were immunized with Id protein that has been conjugated KLH. As described above, this screen identifies HC-specific clones but not mAbs against the light chain constant region. Clones identified positive to the immunogen and KLH were […]. Those found positive to the immunogen but not to the non-family member Id protein or KLH were tittered on the immunogen. In addition to normalizing for different binding affinities and concentrations, each hybridoma supernatant was titered on the fully human form of the Id protein used as the immunogen(s) for the V regions. The titer or dilution resulting in an ELISA absorbance of 2.5 to 3 OD after 30 min. incubation time was then used. Hybridoma specificity was determined by screening against available Id proteins expressing the same HV and KV or LV as well as different HV, KV and LV. The final ELISA results are expressed as follows: 0 (<0.5 OD), 1 (0.5-1.0 OD), or 4 (1-4 OD). Positive hybridoma supernatants are categorized according to specificity: anti-Id, anti-constant region (HC, KC or LC), or V region (HV, KV, LV family or family member).
(§2) In general, the fully human Id protein or proteins containing the immunogen V regions were coated onto 96-well ELISA plates at 2.5-5 ug/mL in carbonate buffer pH 9.6 and incubated at 4° C. for up to 14 days. On the day of the ELISA, plates were brought to RT and blocked with Tris-Tween-20, pH 7.6 for 15-60 min. at RT. Following a NaCl and Triton X-100 wash, diluted hybridoma cell culture supernatants were incubated overnight at 4° C. Hybridoma supernatant dilutions ranged from 1:2 to 1:25 and were prepared in PBS with 5% BSA. Plates were washed and incubated with HRP-conjugated goat anti-mouse IgG-specific detecting antibody. A chromogenic substrate (TMB) was used to measure the amount of mouse antibody bound to each well. The reaction was stopped at or before 30 minutes with IN H2SO4 and plates were read immediately. Absorbency readings at 450 nm ranging between 0-4 OD and using Molecular Devices plate reader and SOFTMAX PRO software.

[2] = target: T2, 210; test: ELISA
T2 construct: H3-23 K3-11; also called PIN210
Source text: as §1, §2

[3] = target: T3, 540; test: ELISA
T3 construct: H3-23 K3-20; also called PIN540
Source text: as §1, §2

[4] = target: T4, 203; test: ELISA
T4 construct: H3-23 L1-47; also called PIN203
Source text: as §1, §2

[5] = target: T5, 213; test: ELISA
T5 construct: H3-23 L1-51; also called PIN213
Source text: as §1, §2

[6] = target: T6, 128; test: ELISA
T6 construct: H3-23 K1-27; also called PIN128
Source text: as §1, §2

[7] = target: T7, 232; test: ELISA
T7 construct: H3-23 K1-6; also called PIN232
Source text: as §1, §2

[8] = target: T8, PIN149 fully human Id protein (HV3-23 / KV4-1) (human); test: ELISA
T8 construct: Recombinant patient-derived idiotype immunoglobulin used as antigen; also called PIN149 Id protein; Immunogen (for 3C9, 6C9, 10H7, 15E1); not shown: human immunoglobulin heavy chain constant region, isotype G3 (HCG3); human immunoglobulin kappa light chain constant region (KC)
T8 sequence (VH, as listed by the source, chain 1 of 2): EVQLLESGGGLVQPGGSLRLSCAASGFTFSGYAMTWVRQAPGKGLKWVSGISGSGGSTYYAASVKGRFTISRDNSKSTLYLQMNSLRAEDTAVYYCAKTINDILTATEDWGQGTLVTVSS
T8 sequence (VL, as listed by the source, chain 2 of 2): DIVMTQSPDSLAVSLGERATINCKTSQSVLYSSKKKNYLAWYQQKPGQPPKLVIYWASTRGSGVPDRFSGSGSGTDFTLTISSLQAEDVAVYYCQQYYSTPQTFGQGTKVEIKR
Source text: as §1, §2

[9] = target: T9, 778; test: ELISA
T9 construct: H3-23 K3-11; also called PIN778
Source text: as §1, §2

[10] = target: T10, 576; test: ELISA
T10 construct: H3-23 L1-51; also called PIN576
Source text: as §1, §2

[11] = target: T11, 617; test: ELISA
T11 construct: H3-23, VL 1-44, LC printed K; also called PIN617
Source text: as §1, §2

[12] = target: T12, 522; test: ELISA
T12 construct: H3-23 L1-40; also called PIN522
Source text: as §1, §2

[13] = target: T13, 834; test: ELISA
T13 construct: H3-23 K1-5; also called PIN834
Source text: as §1, §2

[14] = target: T14, 352; test: ELISA
T14 construct: H3-23 K1-39; also called PIN352
Source text: as §1, §2

[15] = target: T15, 850; test: ELISA
T15 construct: H3-23 K2-30; also called PIN850
Source text: as §1, §2

[16] = target: T16, 591; test: ELISA
T16 construct: H3-23 K4-1; also called PIN591
Source text: as §1, §2

[17] = target: T17, 547; test: ELISA
T17 construct: also called PIN547
Source text: as §1, §2

[18] = target: T18, 571; test: ELISA
T18 construct: H3-23 K3-11; also called PIN571
Source text: as §1, §2

[19] = target: T8, PIN149 fully human Id protein (HV3-23 / …); test: SPR (BIACORE 2000); mAb captured on anti-mouse surface, fully human Id protein as analyte, 25 C
Procedure: (§3) Binding constants were also determined for three of the sequenced clones (3C9, 10H7, and 20H5), as well as for two additional clones (6C9 and 15E1). The association and disassociation rates were measured by surface plasmon resonance using a BIACORE 2000 machine.
(§4) In addition, based on ELISA results, PIN185 was used as a positive control Id protein for 10H7 and 15E1 and a negative control Id protein for 3C9 and 6C9 and PIN149 was used as a non-binding Id protein for 20H5. Each mAb was captured onto an anti-mouse surface and tested for binding to the fully human Id protein. Following the mAb capture phase of the assay for the (@2 ug/ml), the fully human Id proteins were all diluted to a starting concentration of 250 nM and tested in a three fold dilution series. Each concentration was tested in duplicate. The running buffer contained PBS plus 0.005% tween-20 and 0.1 mg/ml BSA as a carrier. Binding data were collected at 25° C. […] The other data sets all fit well to a single site interaction model.

[20] = target: T19, PIN185 fully human Id protein (human); test: ELISA
T19 construct: Patient-derived idiotype immunoglobulin used as control antigen in SPR
Source text: as §1, §2

[21] = target: T20, 199; test: ELISA
T20 construct: H3-7 K4-1; also called PIN199
Source text: as §1, §2

[22] = target: T21, 1088; test: ELISA
T21 construct: H2-5 K4-1; also called PIN1088
Source text: as §1, §2

[23] = target: T22, 659; test: ELISA
T22 construct: H3-21 K4-1; also called PIN659
Source text: as §1, §2

[24] = target: T23, 844; test: ELISA
T23 construct: H3-7 K4-1; also called PIN844
Source text: as §1, §2

[25] = target: T24, 170; test: ELISA
T24 construct: H4-34 K4-1; also called PIN170
Source text: as §1, §2

[26] = target: T25, 628; test: ELISA
T25 construct: fully human Id protein; also called PIN628
T25 sequence (VH, as listed by the source, chain 1 of 2): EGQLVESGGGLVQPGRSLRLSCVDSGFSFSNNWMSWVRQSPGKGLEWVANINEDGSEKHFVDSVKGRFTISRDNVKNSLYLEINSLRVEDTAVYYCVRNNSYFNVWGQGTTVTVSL
T25 sequence (VL, as listed by the source, chain 2 of 2): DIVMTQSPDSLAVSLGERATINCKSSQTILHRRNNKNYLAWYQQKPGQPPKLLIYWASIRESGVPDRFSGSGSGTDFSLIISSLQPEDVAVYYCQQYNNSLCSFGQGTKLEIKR
Source text: as §1, §2

[27] = target: T26, 1145; test: ELISA
T26 construct: H3-11 K4-1; also called PIN1145
Source text: as §1, §2

[28] = target: T27, 913; test: ELISA
T27 construct: fully human Id protein; also called PIN913
T27 sequence (heavy, as listed by the source): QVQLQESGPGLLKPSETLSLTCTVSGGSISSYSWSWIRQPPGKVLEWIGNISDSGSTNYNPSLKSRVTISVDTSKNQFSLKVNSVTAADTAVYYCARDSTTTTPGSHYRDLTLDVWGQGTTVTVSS
Source text: as §1, §2

[29] = target: T28, 179; test: ELISA
T28 construct: H3-11 K4-1; also called PIN179
Source text: as §1, §2

[30] = target: T29, 987; test: ELISA
T29 construct: H3-23 K4-1; also called PIN987
Source text: as §1, §2

[31] = target: T30, 839; test: ELISA
T30 construct: H3-23 K4-1; also called PIN839
Source text: as §1, §2

[32] = target: T31, 1154; test: ELISA
T31 construct: H4-61 K4-1; also called PIN1154
Source text: as §1, §2

[33] = target: T32, 626; test: ELISA
T32 construct: H5-51 K4-1; also called PIN626
Source text: as §1, §2

[34] = target: T33, 529; test: ELISA
T33 construct: H3-48 K4-1; also called PIN529
Source text: as §1, §2

[35] = target: T34, 898; test: ELISA
T34 construct: H3-15 K4-1; also called PIN898
Source text: as §1, §2

[36] = target: T35, 204; test: ELISA
T35 construct: H3-15 K4-1; also called PIN204
Source text: as §1, §2

[37] = target: T36, 1014; test: ELISA
T36 construct: H3-53 K4-1; also called PIN1014
Source text: as §1, §2

[38] = target: T37, 952; test: ELISA
T37 construct: H3-66 K4-1; also called PIN952
Source text: as §1, §2

[39] = target: T38, 1023; test: ELISA
T38 construct: H4-4 K4-1; also called PIN1023
Source text: as §1, §2

[40] = target: T39, 763; test: ELISA
T39 construct: H4-59 K4-1; also called PIN763
Source text: as §1, §2

[41] = target: T40, 950; test: ELISA
T40 construct: H4-59 K4-1; also called PIN950
Source text: as §1, §2

[42] = target: T41, 792; test: ELISA
T41 construct: H1-3 K4-1; also called PIN792
Source text: as §1, §2

[43] = target: T42, 791; test: ELISA
T42 construct: H3-30 K4-1; also called PIN791
Source text: as §1, §2

[44] = target: T43, 112; test: ELISA
T43 construct: H4-39 K4-1; also called PIN112
Source text: as §1, §2

[45] = target: T44, 192; test: ELISA
T44 construct: H5-51 K4-1; also called PIN192
Source text: as §1, §2

[46] = target: T19, PIN185 fully human Id protein; test: SPR (BIACORE 2000); mAb captured on anti-mouse surface, fully human Id protein as analyte, 25 C
Procedure: as §3, §4

- grade [1]: 4
- grade [2]: 4
- grade [3]: 4
- grade [4]: 4
- grade [5]: 1
- grade [6]: 4
- grade [7]: 4
- grade [8]: 4
- grade [9]: 4
- grade [10]: 4
- grade [11]: 4
- grade [12]: 4
- grade [13]: 4
- grade [14]: 4
- grade [15]: 4
- grade [16]: 4
- grade [17]: 4
- grade [18]: 4
- Kd [19]: 1.78 nM
- koff [19]: 0.000134 s⁻¹
- kon [19]: 74900 M⁻¹ s⁻¹
B1: mAb clone 3C9 (antibody, V domains shown)
VH: EVQLQQSGPELEKPGASVKISCKASGYSFTAYNMNWVKQNNGKSLEWIGNIDPYHGGTNYNQKFKGKATLTVDKSSSTAYMQLKSLTSEDYAVYYCARGGGDWSWFAYWGQGTLVTVSA
VL: DIVMTQSHKFMSTSVGDRVSITCKASQDVNTAVAWYQQKPGQSPKVLIYWASNRHTGVPDRFTGSGSGTDYTLTISSMQAEDLALYYCHQHYSTPWTFGGGTKLEIER
notes: Mouse hybridoma mAb, fusions 13/14 (immunogen PIN149 chimera-KLH); also called anti-IGHV3-23 monoclonal 3C9

- grade [20]: 4
- grade [21]: 4
- grade [22]: 4
- grade [23]: 4
- grade [24]: 4
- grade [25]: 4
- grade [26]: 4
- grade [27]: 4
- grade [28]: 4
- grade [29]: 4
- grade [30]: 4
- grade [31]: 4
- grade [32]: 4
- grade [8]: 4
- grade [33]: 4
- grade [34]: 4
- grade [35]: 4
- grade [36]: 4
- grade [37]: 4
- grade [38]: 4
- grade [39]: 4
- grade [40]: 4
- grade [41]: 4
- grade [42]: 4
- grade [43]: 4
- grade [16]: 4
- grade [44]: 4
- grade [45]: 4
- Kd [46]: 3 nM
- koff [46]: 9.9e-05 s⁻¹
- kon [46]: 33200 M⁻¹ s⁻¹
- Kd [19]: 0.83 nM
- koff [19]: 3.8e-05 s⁻¹
- kon [19]: 45400 M⁻¹ s⁻¹
B2: mAb clone 10H7 (antibody, V domains shown)
VH: EVQLVESGGGLVKPGGSLKLSCTASGFTFSSYAMSWVRQSPEKRLEWVAEISSGGIHTYYSDTVTGRFSISRDNAKNSTLYLEMNSLRSEDTAIYYCARETTGTWGQGTLVTVSA
VL: QIVLTQSPAIMSASPGEKVTMTCSVSSSITYMHWFRQKPGTSPKLWIYTTSNLASGVPARFSGSGSGTSYSLTISRMEAEDAATYYCQQRSRYPFTFGSGTKLEIKR
notes: Mouse hybridoma mAb, fusions 13/14 (immunogen PIN149 chimera-KLH)
